Patent publication US20240116985A1 (published 2024)
Starred links: 1 amine or outer side, 2 acyl side, 3 side chain; linkers in the order of their positions; H or OH if unused. Positions of bridges follow the written chain, without caps; N, C: chain ends. Non-standard residues stand in square brackets, D forms with d. Primed or numbered codes have the meaning given here. *: point of attachment. PyrS2″ = (S)-3-amino-1-((pent-4-en-1-yloxy)carbonyl)pyrrolidine-3-carboxylic acid (stapling residue), C=CCCCOC(=O)N1CC[C@@](N[*:1])(C(=O)[*:2])C1; RdN″ = (R)-4-(((allyloxy)carbonyl)(methyl)amino)-2-amino-2-methylbutanoic acid (stapling residue), C=CCOC(=O)N(C)CC[C@@](C)(N[*:1])C(=O)[*:2]; B5(16) = 2-amino-2-(pent-4-en-1-yl)hept-6-enoic acid = 2,2-bis(4-pentenyl)glycine (stitching residue), C=CCCCC(CCCC=C)(N[*:1])C(=O)[*:2]; B5(32) = 2-amino-2-(pent-4-en-1-yl)hept-6-enoic acid (bis-4-pentenylglycine, two alkene side chains), C=CCCCC(CCCC=C)(N[*:1])C(=O)[*:2]; B5(5) = 2,2-bis(4-pentenyl)glycine, 2-amino-2-(pent-4-en-1-yl)hept-6-enoic acid (stitching residue), C=CCCCC(CCCC=C)(N[*:1])C(=O)[*:2]; PyrS2 = (S)-3-amino-1-((pent-4-en-1-yloxy)carbonyl)pyrrolidine-3-carboxylic acid, C=CCCCOC(=O)N1CC[C@@](N[*:1])(C(=O)[*:2])C1; Phe(3-COOH) = N[C@@H](Cc1cccc(C(=O)O)c1)C(=O)O; S7 = C[C@@](CCCCCC=[*:3])(N[*:1])C(=O)[*:2]; Phe(2-Cl) = N[C@@H](Cc1ccccc1Cl)C(=O)O; Bta = N[C@@H](Cc1csc2ccccc12)C(=O)O; αAllylPro = C=CC[C@@]1(C(=O)O)CCCN1; tBuAla = CC(C)(C)C[C@H](N)C(=O)O; 3Thi = N[C@@H](Cc1ccsc1)C(=O)O; S8 = C=CCCCCCC[C@](C)(N)C(=O)O; Ms = CS(=O)(=O)*

Key:
B-cat-Halo = target: T1, B-cat-Halo (UniProt P35222 1-781); assay: cell-based or functional assay
T1 sequence (looked up): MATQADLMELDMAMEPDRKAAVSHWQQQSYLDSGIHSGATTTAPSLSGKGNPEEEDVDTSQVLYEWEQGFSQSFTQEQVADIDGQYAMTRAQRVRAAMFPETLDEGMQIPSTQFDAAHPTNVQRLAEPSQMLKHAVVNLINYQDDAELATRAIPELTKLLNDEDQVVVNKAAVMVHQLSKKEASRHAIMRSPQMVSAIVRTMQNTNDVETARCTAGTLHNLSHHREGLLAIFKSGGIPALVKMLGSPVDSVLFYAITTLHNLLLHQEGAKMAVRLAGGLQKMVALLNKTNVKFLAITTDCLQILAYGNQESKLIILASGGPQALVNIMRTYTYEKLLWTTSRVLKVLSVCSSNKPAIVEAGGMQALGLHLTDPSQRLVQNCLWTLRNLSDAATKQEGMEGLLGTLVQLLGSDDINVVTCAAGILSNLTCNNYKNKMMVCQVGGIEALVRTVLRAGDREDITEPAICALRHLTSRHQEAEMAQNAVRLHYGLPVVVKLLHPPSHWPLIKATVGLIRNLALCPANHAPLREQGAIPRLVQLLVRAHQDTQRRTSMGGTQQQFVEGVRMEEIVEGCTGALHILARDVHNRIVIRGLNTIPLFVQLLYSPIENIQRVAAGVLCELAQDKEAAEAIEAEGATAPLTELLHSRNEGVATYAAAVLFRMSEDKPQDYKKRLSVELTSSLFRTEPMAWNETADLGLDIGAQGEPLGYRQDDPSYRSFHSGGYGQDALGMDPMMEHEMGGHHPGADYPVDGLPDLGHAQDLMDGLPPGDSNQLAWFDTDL

[1] = target: T2, beta-catenin in DLD1 TCF/LEF luciferase reporter cells (UniProt P35222 1-781); assay: cell-based or functional assay
T2 sequence (looked up): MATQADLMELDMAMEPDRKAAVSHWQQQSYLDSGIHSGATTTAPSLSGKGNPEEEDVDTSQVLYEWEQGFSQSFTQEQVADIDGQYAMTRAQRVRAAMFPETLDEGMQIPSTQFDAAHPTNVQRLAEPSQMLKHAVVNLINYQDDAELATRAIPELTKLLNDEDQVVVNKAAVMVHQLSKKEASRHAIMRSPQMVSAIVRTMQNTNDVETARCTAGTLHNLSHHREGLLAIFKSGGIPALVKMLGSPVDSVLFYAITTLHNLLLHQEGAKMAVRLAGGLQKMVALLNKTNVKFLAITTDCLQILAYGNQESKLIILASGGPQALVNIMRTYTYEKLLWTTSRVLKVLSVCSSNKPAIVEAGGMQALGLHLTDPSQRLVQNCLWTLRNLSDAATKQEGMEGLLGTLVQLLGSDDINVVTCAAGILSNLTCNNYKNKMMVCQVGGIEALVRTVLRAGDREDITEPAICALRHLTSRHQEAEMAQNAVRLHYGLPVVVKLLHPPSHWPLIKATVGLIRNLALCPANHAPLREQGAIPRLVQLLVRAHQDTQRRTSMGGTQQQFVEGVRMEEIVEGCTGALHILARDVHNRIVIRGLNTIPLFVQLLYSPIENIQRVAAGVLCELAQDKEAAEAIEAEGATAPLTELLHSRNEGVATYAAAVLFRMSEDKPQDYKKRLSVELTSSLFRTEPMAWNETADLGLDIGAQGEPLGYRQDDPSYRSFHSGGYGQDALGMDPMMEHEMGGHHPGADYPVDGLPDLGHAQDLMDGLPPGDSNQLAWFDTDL

[2] = target: T3, full-length beta-Catenin (Uniprot ID P35222) (Homo sapiens (Human), UniProt P35222 2-781); assay: fluorescence polarization competition; peptide titrated against 10 nM full-length beta-catenin with 10 nM 5FAM-TCF4(10-53) probe
T3 construct: also called bCat; B-Catenin
T3 sequence: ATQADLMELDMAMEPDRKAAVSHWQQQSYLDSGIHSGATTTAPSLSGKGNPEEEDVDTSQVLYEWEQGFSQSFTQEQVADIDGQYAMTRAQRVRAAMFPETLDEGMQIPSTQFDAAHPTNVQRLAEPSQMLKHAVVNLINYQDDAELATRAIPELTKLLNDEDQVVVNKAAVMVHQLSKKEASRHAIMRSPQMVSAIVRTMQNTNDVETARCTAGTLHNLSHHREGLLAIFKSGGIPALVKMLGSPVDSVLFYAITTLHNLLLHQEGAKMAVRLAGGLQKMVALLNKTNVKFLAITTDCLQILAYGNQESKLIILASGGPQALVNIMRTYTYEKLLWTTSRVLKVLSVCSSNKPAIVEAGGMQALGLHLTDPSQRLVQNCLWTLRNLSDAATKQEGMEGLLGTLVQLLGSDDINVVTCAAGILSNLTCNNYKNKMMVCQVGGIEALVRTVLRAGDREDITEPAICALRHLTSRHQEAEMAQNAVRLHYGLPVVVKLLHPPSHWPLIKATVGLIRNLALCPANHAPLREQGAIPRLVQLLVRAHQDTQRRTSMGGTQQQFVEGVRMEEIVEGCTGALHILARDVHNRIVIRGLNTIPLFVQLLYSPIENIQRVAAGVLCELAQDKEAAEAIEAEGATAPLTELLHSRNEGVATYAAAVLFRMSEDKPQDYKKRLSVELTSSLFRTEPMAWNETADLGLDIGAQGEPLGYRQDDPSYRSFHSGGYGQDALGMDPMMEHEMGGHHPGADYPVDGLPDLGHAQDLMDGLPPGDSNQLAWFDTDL
Procedure: (§1) The plate was incubated protected from light for 60 minutes at 20° C. prior to read. Reads were performed on a CLARIOstar plate reader (BMG Labtech) in duplicate, and data were fitted to a 1:1 binding model with hill slope using an in-house script. All provided concentrations are final concentrations.

[3] = target: T4, full-length beta-Catenin (Uniprot ID P35222) (Homo sapiens (Human), UniProt P35222 1-781); assay: fluorescence polarization competition; peptide titrated against full-length beta-catenin + 5FAM-TCF4(10-53)
T4 construct: also called bCat; B-Catenin
T4 sequence: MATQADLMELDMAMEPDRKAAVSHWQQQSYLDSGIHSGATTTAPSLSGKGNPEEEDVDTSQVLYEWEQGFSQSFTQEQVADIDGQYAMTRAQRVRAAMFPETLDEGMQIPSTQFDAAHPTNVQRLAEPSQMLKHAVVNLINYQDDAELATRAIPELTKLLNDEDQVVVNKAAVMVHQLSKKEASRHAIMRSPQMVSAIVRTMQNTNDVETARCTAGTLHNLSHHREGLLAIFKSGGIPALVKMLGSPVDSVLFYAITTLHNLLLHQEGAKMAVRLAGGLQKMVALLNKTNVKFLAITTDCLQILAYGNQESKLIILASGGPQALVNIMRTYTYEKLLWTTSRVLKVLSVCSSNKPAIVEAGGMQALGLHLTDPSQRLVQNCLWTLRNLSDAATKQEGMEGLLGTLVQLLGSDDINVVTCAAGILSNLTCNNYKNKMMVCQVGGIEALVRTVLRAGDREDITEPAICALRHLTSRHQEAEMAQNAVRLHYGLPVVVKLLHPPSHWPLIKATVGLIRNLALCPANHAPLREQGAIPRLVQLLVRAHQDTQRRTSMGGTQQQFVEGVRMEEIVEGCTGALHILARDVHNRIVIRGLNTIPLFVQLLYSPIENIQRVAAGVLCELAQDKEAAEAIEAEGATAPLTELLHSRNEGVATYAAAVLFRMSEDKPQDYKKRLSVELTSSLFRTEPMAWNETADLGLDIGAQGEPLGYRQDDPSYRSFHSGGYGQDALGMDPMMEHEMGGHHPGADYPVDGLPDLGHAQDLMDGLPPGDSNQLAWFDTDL
Procedure: as §1

[4] = target: T5, full-length beta-Catenin (Uniprot ID P35222) (Homo sapiens (Human), UniProt P35222 2-781); assay: fluorescence polarization competition; 10 nM full-length beta-catenin + 10 nM 5FAM-TCF4 10-53 as competitor probe
T5 construct: Used at 10 nM in the FP probe solution as 'full-length'; Also used here for the endogenous beta-catenin of the DLD1 TCF/LEF reporter cells (functional rows); also called bCat; B-Catenin
T5 sequence: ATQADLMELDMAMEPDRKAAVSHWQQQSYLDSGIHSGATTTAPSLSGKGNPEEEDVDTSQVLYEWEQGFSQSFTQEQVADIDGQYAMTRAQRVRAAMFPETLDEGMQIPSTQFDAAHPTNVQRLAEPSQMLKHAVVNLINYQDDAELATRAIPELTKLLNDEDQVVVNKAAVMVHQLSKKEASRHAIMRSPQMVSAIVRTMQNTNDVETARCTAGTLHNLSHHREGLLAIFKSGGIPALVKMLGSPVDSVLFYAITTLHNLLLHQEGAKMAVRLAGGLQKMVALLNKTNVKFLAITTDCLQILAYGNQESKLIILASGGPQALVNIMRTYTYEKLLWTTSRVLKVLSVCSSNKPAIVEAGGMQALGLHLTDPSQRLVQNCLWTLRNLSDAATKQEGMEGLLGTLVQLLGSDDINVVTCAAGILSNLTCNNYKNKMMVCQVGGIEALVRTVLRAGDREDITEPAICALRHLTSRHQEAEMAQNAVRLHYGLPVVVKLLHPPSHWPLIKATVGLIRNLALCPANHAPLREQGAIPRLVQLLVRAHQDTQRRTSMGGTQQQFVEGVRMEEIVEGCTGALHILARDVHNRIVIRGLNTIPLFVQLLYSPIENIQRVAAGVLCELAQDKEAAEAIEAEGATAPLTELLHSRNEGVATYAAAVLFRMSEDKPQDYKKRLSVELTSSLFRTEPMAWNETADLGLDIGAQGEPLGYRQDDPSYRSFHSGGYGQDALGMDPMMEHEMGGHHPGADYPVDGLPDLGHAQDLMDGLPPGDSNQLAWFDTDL
Procedure: as §1

Bcat-Halo = target: T6, Bcat-Halo (UniProt P35222 1-781, HaloTag NanoBRET 618 Ligand bound to the Halo part); assay: NanoBRET Abs IC50, HEK293 cells transfected with Bcat-Halo and TCF4-Luc (competitor: TCF4-Luc); cellular assay
T6 construct: Expressed in transfected HEK293 cells (NanoBRET acceptor construct); also called beta-catenin HaloTag fusion; not shown: HaloTag
T6 sequence (looked up): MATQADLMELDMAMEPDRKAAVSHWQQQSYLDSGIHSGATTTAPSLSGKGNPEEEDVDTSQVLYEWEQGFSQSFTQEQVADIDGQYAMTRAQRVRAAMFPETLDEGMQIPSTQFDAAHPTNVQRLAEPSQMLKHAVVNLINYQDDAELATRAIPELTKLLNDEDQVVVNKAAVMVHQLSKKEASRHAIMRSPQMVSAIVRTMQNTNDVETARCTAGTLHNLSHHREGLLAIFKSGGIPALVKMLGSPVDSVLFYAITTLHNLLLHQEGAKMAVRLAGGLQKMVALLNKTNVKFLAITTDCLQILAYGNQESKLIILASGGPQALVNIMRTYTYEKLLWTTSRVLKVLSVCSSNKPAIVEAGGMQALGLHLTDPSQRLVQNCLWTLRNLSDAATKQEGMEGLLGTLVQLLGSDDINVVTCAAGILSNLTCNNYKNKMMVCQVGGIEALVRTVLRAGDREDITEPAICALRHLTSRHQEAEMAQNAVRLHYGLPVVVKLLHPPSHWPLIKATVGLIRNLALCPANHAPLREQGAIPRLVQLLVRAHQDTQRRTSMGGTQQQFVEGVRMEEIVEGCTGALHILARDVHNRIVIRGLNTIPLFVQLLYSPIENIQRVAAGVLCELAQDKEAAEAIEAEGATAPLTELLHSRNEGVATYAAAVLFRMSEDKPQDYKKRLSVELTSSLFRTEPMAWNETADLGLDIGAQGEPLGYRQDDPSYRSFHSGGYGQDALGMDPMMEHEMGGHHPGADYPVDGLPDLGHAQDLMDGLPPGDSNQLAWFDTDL

B1: I-2276 (peptide)
peptide: Ac-[αAllylPro]D[tBuAla][B5(32)]D[Phe(3-COOH)]AAFL[PyrS2][3Thi][Bta]NLLL-NH2
modifications: staple 1-4, 4-11; also: later eluting staple isomer (HPLC peak)
NanoBRET Abs IC50 (B-cat-Halo): 4000 nM
DLD1 4% Abs IC50 [1]: 3900 nM

B2: I-67: Ac-Ala-Asp-Ile-RdN-Asp-Glu-Ala-Ala-Phe-Gln-S7-Phe-Trp-His-NH2 (stapled peptide) (peptide)
peptide: Ac-ADI[RdN″]DEAAFQ[S7]FWH-NH2
modifications: staple 4-11
notes: This is the later eluting staple isomer composition
IC50 [2]: 1230 nM

B3: I-710 (peptide)
peptide: Ms-[αAllylPro]DI[B5(5)]DEAAFQ[S8]F[Bta]Q-NH2
modifications: staple 1-4, 4-11
notes: separate staple-isomer composition (earlier eluting HPLC peak); also called MeSO2-PL3-Asp-Ile-B5-Asp-Glu-Ala-Ala-Phe-Gln-S8-Phe-BztA-Gln-NH2
IC50 [3]: 73 nM

B4: I-1041 (peptide)
peptide: Ac-[αAllylPro]DF[B5(16)]DDAAFN[PyrS2″][Phe(2-Cl)][Bta]Q-NH2
modifications: staple 1-4, 4-11
notes: Stapled (stitched) peptide composition
EC50 [4]: 8 nM
IC50 (Bcat-Halo): > 20000 nM
